± gives the uncertainty stated by the source.
Experiment: amyloid nucleation score (Sup35N fusion, yeast selection) (log enrichment); library NNK3; higher = more nucleation; inactive = no reads after selection
Summary of the method: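 Output and input plasmid inserts were sequenced by Illumina after psi-negative yeast carrying Sup35N fused to peptides of 20 random codons had been induced 24 hours with 100 μM copper sulfate and grown 7 days at 30°C on medium lacking adenine and uracil. The nucleation score is the DiMSum log enrichment of output over input reads, centred on the mode score of non-aggregating sequences. Sequences with under 100 input reads were excluded.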

| Substance | amyloid nucleation score |
| --- | --- |
| GCKRSSGKRFLCRGAPCDEW | inactive |
| TSMRKSACSWTLFSLR | inactive |
| IHGHC | inactive |
| STELYVNLDQVSPYSVRQLT | inactive |
| EISLPLFFATLGYFFWIAMR | inactive |
| VVLYRIGVLSN | inactive |
| YPRDWGYALRLYYVEKKLR | inactive |
| CQLGSSLGDDTEGSVAIPAV | inactive |
| NIDFLLSYRTMSKFYPNIRM | inactive |
| HFQCLMSVRSGSNQTRDILL | 1.28 ± 0.15 |
| SCNSRFMI | -0.082 ± 0.66 |
| GCLVRCDFVSQCLNWDG | inactive |
| TISYMWRLNGWRSNRAFGSI | inactive |
| MIYSHDHTYHSCLLDAVSCR | inactive |
| KNVSEEVGLSLVPSEGKSHL | inactive |
| LTASYSFVTTVGYSGLDLKV | inactive |
| CSRPVVLIKGLLWAFRRWAY | inactive |
| KVIRNTFIACCSV | 2.16 ± 0.07 |
| VTILMLNHYSYTSLLMRKFN | 0.704 ± 0.12 |
| GGYRVGFYQY | inactive |
| LERHL | inactive |

| Substance | amyloid nucleation score |
| --- | --- |
| WLESHGDHGFNEKDSWWPYF | inactive |
| NPETASLNLIKMSMHVSSFV | inactive |
| LNLSYGM | inactive |
| IDILNG | 0.152 ± 0.71 |
| KLYIALMDKYPGATSMFQPV | 1.18 ± 0.23 |
| KWTSCSYPH | inactive |
| VSSKDGLFCCL | 0.209 ± 0.66 |
| RKVSSLVITRMAWMLSGNWL | 2.57 ± 0.051 |
| VHVRWVVRMVSWKYLAGILL | inactive |
| FSLFS | inactive |
| SVILNLMRRWPRKHEVKDAC | inactive |
| FYSCGNDAASMLFRLTSGGI | inactive |
| RFCRRVHMRLDAVGTCVRWW | inactive |
| RNVIANEGLCQKR | inactive |
| TFTTFRWDEGVLLYLYERVG | inactive |
| VTNRIGLV | inactive |
| RAHPALVWMIARTKSSSICL | inactive |
| CWNLISWSKEYA | inactive |
| SKWSTEFLTCHT | inactive |
| RMNCQFTGMSTFRPPLLGAR | inactive |
| RESNNLLFQQVGYLYYSWFY | 1.86 ± 0.078 |

| Substance | amyloid nucleation score |
| --- | --- |
| SKESTNSVRCVFITVSPTRR | 0.976 ± 0.21 |
| SSVRRYHKLIKRRDYVAFNV | inactive |
| AMQIYTLVMGSPRDFDYWKV | 1.14 ± 0.11 |
| ITIGTTIGDLSYR | inactive |
| TWQVVNSPYPMRNIPYRSRW | inactive |
| FTCEPARFKDYQWNNEGYCL | inactive |
| IDARRFQGFNISSYMN | 0.372 ± 0.28 |
| NWGRKCLFSSWCLLYVDNGT | 0.555 ± 0.2 |
| HRMCVRRFRVFRESVEEVHF | inactive |
| WNLHLLICEKSHTMEVMLLR | inactive |
| FFFTSKSLGPVTLTLISVSD | inactive |
| VLSVLFFLLLSPPIRFQVEG | inactive |
| TSKLRQCGFL | inactive |
| LNPTAYYVVPLVLALAWISH | inactive |
| EFMSSVGIYMEIDCTLGVCD | inactive |
| ACLIRPRFYPVNHNSVVASL | inactive |
| VLRSANCCCGFD | inactive |
| SAKCTKEFYSNASKYFNSYL | inactive |
| FSSCDHRFWTFLIKFMLLAL | inactive |
| CIWHLHLLFLEGVYV | inactive |
| EYGLNFSLNGYLSH | 0.601 ± 0.32 |

| Substance | amyloid nucleation score |
| --- | --- |
| FSLWEHPVKIMCLFVYVACG | inactive |
| IYVHNYFISVVIMVYFTMLP | inactive |
| SNYWNWGRGYVCSRFRELVI | inactive |
| DMCNYAFDGLCIYNYVNVVG | inactive |
| AAISVFCEVFK | inactive |
| CVFIFLKSCKYKVVKGINGV | inactive |
| YLWEYSEMLSTDI | inactive |
| QGLSGRRGYSDRY | inactive |
| LASRMMFSLTDAMTDADGSV | inactive |
| WRDRNF | 1.3 ± 0.15 |
| CNILIISTTLTPKITLTFYC | 1.64 ± 0.13 |
| LLAGYPLWKPKTCQYMKPWL | 0.125 ± 0.24 |
| SVHPGTRG | inactive |
| YYVIDILVW | inactive |
| WYWSLA | -0.174 ± 0.59 |
| CVWAVGVFFGFMIQRQDEER | inactive |
| VRDCTTDTQWERWVETLSPS | inactive |
| LLNVTHSVAMTRTHGGVTYW | 0.776 ± 0.17 |
